This is an account of results in paper doi:10.1101/2022.09.07.506877.

This data set addresses Sb-gRAMP (type III-E CRISPR effector, Cas7-11);TPR-CHAT (caspase-like peptidase) (Candidatus "Scalindua …, UniProt A0A0B0EGF3;A0A0B0EKL4 1-1717;1-716, |). Put plainly: cryo-EM structure.

B1: crRNA (37 nt) / target ssRNA (18 nt as modelled) (structured_RNA)
RNA 1: GGACUUAAUGUCACGGUACCCAAUUUUCUGCCCCGGA
RNA 2: UCCGGGGCAGAAAAUUGG
For the molecule B1, the binding result was “binds”.
